Data on one molecule can be found in PMC10762086, “Non-canonical interplay between glutamatergic NMDA and dopamine receptors shapes synaptogenesis” (Nature Communications, 2024).

This experiment has as its target GluN1 subunit-containing NMDAR (GluN1-NMDAR), tagged GluN1 expressed at the surface of hippocampal neurons (UniProt P35439 19-938, Only the defined, expressed GluN1 subunit is built: it carries the D1R interaction through its C1 cassette. The canonical 938-aa form is taken as the C1-containing GluN1-1a; the exact splice form is n). The experiment in a line: multidimensional spectral single molecule localization microscopy (MS-SMLM; two-colour quantum-dot single-particle tracking); live cultured hippocampal neurons (immature DIV 7-9; mature DIV 15 and above), surface receptors labelled by antibodies against extracellular tags and Qd-655 / Qd-705; 1000 frames of 50 ms (20 Hz), 37 °C; receptors counted as interacting when their distance fell below 100 nm; Koff estimated …. The note with it: partners not purified.

As usually defined, the koff is a measure of how fast the partners let go of each other.

B1: dopamine receptor 1 wild-type (D1R-wt), extracellularly tagged, expressed in hippocampal neurons (receptor, UniProt P18901 1-446, looked up)
chain: MAPNTSTMDEAGLPAERDFSFRILTACFLSLLILSTLLGNTLVCAAVIRFRHLRSKVTNFFVISLAVSDLLVAVLVMPWKAVAEIAGFWPLGPFCNIWVAFDIMCSTASILNLCVISVDRYWAISSPFQYERKMTPKAAFILISVAWTLSVLISFIPVQLSWHKAKPTWPLDGNFTSLEDTEDDNCDTRLSRTYAISSSLISFYIPVAIMIVTYTSIYRIAQKQIRRISALERAAVHAKNCQTTAGNGNPVECAQSESSFKMSFKRETKVLKTLSVIMGVFVCCWLPFFISNCMVPFCGSEETQPFCIDSITFDVFVWFGWANSSLNPIIYAFNADFQKAFSTLLGCYRLCPTTNNAIETVSINNNGAVVFSSHHEPRGSISKDCNLVYLIPHAVGSSEDLKKEEAGGIAKPLEKLSPALSVILDYDTDVSLEKIQPVTHSGQHST
notes: dopamine D1 receptor; also called dopamine D1 receptor; source: cultured rat hippocampal neurons, transfected (calcium phosphate), on live cells; not shown: extracellular tag (GFP or Flag)
As to B1, the koff was 13 ± 0.7 s⁻¹.
